Source: patent US20120316071A1 (published 2012)

Assays:
[1] = target: T1, Recombinant Human DLL4 (human, UniProt Q9NR61 27-524); experiment: ELISA on plate-coated DLL4, Fab at 6.67 nM (3-fold serial dilution)
T1 construct: Bought recombinant human DLL4 (R&D Systems 1506-D4/CF); also called delta-like protein 4; rHuman DLL4

[2] = target: T1, Recombinant Human DLL4; experiment: ELISA on plate-coated DLL4, Fab at 0.74 nM (3-fold serial dilution)
[3] = target: T1, Recombinant Human DLL4; experiment: ELISA on plate-coated DLL4, Fab at 20 nM (3-fold serial dilution)
[4] = target: T1, Recombinant Human DLL4; experiment: ELISA on plate-coated DLL4, Fab at 2.22 nM (3-fold serial dilution)
[5] = target: T1, Recombinant Human DLL4; experiment: ECL (MSD) binding assay, Fab on immobilised recombinant human DLL4; Fab concentration not given in the table

ELISA signal [1]	ELISA signal [2]	ELISA signal [3]	ELISA signal [4]	ECL signal [5]	Binder
0.916	0.398	1.05	0.557	11500	Fab VH1-46_IGHD6-6*01_IGHJ1*01 S102A/S103P/S104F/H111F N52L/S54T/G56H & L6_IGKJ1*01 S28N/S30D/S31H S52L/A55S (Fab, V domains shown, Fab expressed in E. coli: VH joined to CH1 from Plasmid A (His6 and Flag tags), VL joined to kappa CL from Plasmid C; also called H:APFF LTH & L:NDH LS) VH: QVQLVQSGAEVKKPGASVKVSCKASGYTFTSYYMHWVRQAPGQGLEWMGIILPTGHSTSYAQKFQGRVTMTRDTSTSTVYMELSSLRSEDTAVYYCAREEYAPFSAEYFQFWGQGTLVTVSS VL: EIVLTQSPATLSLSPGERATLSCRASQNVDHYLAWYQQKPGQAPRLLIYDALNRSTGIPARFSGSGSGTDFTLTISSLEPEDFAVYYCQQRSNWPPWTFGQGTKVEIKR
0.739	0.27	0.863	0.463	6020	Fab VH1-46_IGHD6-6*01_IGHJ1*01 S102A/S103P/S104F/H111F N52L/S54T/G56H & L6_IGKJ1*01 S28N/S30D/S31H (Fab, V domains shown, Fab expressed in E. coli: VH joined to CH1 from Plasmid A (His6 and Flag tags), VL joined to kappa CL from Plasmid C; also called H:APFF LTH & L:NDH) VH: QVQLVQSGAEVKKPGASVKVSCKASGYTFTSYYMHWVRQAPGQGLEWMGIILPTGHSTSYAQKFQGRVTMTRDTSTSTVYMELSSLRSEDTAVYYCAREEYAPFSAEYFQFWGQGTLVTVSS VL: EIVLTQSPATLSLSPGERATLSCRASQNVDHYLAWYQQKPGQAPRLLIYDASNRATGIPARFSGSGSGTDFTLTISSLEPEDFAVYYCQQRSNWPPWTFGQGTKVEIKR
0.747	0.263	0.91	0.523	8000	Fab VH1-46_IGHD6-6*01_IGHJ1*01 S102A/S103P/S104F/H111F I51V/N52L/S54T/G56H & L6_IGKJ1*01 S28N/S30D/S31H S52L/A55S (Fab, V domains shown, Fab expressed in E. coli: VH joined to CH1 from Plasmid A (His6 and Flag tags), VL joined to kappa CL from Plasmid C; also called H:APFF VLTH & L:NDH LS) VH: QVQLVQSGAEVKKPGASVKVSCKASGYTFTSYYMHWVRQAPGQGLEWMGIVLPTGHSTSYAQKFQGRVTMTRDTSTSTVYMELSSLRSEDTAVYYCAREEYAPFSAEYFQFWGQGTLVTVSS VL: EIVLTQSPATLSLSPGERATLSCRASQNVDHYLAWYQQKPGQAPRLLIYDALNRSTGIPARFSGSGSGTDFTLTISSLEPEDFAVYYCQQRSNWPPWTFGQGTKVEIKR
0.282	0.046	0.458	0.04	3720	Fab VH1-46_IGHD6-6*01_IGHJ1*01 S102A/S103P/S104F/H111F I51A/N52L/S54T/G56H & L6_IGKJ1*01 S28N/S30D/S31H S52L/A55S (Fab, V domains shown, Fab expressed in E. coli: VH joined to CH1 from Plasmid A (His6 and Flag tags), VL joined to kappa CL from Plasmid C; also called H:APFF ALTH & L:NDH LS) VH: QVQLVQSGAEVKKPGASVKVSCKASGYTFTSYYMHWVRQAPGQGLEWMGIALPTGHSTSYAQKFQGRVTMTRDTSTSTVYMELSSLRSEDTAVYYCAREEYAPFSAEYFQFWGQGTLVTVSS VL: EIVLTQSPATLSLSPGERATLSCRASQNVDHYLAWYQQKPGQAPRLLIYDALNRSTGIPARFSGSGSGTDFTLTISSLEPEDFAVYYCQQRSNWPPWTFGQGTKVEIKR

Continued, binder first:

Binder	ELISA signal [1]	ELISA signal [2]	ELISA signal [3]	ELISA signal [4]	ECL signal [5]
Fab VH1-46_IGHD6-6*01_IGHJ1*01 S102A/S103P/S104F/H111F N52L/S54T/G56H & L6_IGKJ1*01 S28N/S30D/S31H S52L/A55G (Fab, V domains shown, Fab expressed in E. coli: VH joined to CH1 from Plasmid A (His6 and Flag tags), VL joined to kappa CL from Plasmid C; also called H:APFF LTH & L:NDH LG) VH: QVQLVQSGAEVKKPGASVKVSCKASGYTFTSYYMHWVRQAPGQGLEWMGIILPTGHSTSYAQKFQGRVTMTRDTSTSTVYMELSSLRSEDTAVYYCAREEYAPFSAEYFQFWGQGTLVTVSS VL: EIVLTQSPATLSLSPGERATLSCRASQNVDHYLAWYQQKPGQAPRLLIYDALNRGTGIPARFSGSGSGTDFTLTISSLEPEDFAVYYCQQRSNWPPWTFGQGTKVEIKR	0.88	0.368	1.01	0.594	9010
Fab VH1-46_IGHD6-6*01_IGHJ1*01 S102A/S103P/S104F/H111F I51V/N52L/S54T/G56H & L6_IGKJ1*01 S28N/S30D/S31H S52L/A55G (Fab, V domains shown, Fab expressed in E. coli: VH joined to CH1 from Plasmid A (His6 and Flag tags), VL joined to kappa CL from Plasmid C; also called H:APFF VLTH & L:NDH LG) VH: QVQLVQSGAEVKKPGASVKVSCKASGYTFTSYYMHWVRQAPGQGLEWMGIVLPTGHSTSYAQKFQGRVTMTRDTSTSTVYMELSSLRSEDTAVYYCAREEYAPFSAEYFQFWGQGTLVTVSS VL: EIVLTQSPATLSLSPGERATLSCRASQNVDHYLAWYQQKPGQAPRLLIYDALNRGTGIPARFSGSGSGTDFTLTISSLEPEDFAVYYCQQRSNWPPWTFGQGTKVEIKR	0.916	0.397	1.06	0.755	12200
Fab VH1-46_IGHD6-6*01_IGHJ1*01 S102A/S103P/S104F/H111F I51A/N52L/S54T/G56H & L6_IGKJ1*01 S28N/S30D/S31H (Fab, V domains shown, Fab expressed in E. coli: VH joined to CH1 from Plasmid A (His6 and Flag tags), VL joined to kappa CL from Plasmid C; also called H:APFF ALTH & L:NDH) VH: QVQLVQSGAEVKKPGASVKVSCKASGYTFTSYYMHWVRQAPGQGLEWMGIALPTGHSTSYAQKFQGRVTMTRDTSTSTVYMELSSLRSEDTAVYYCAREEYAPFSAEYFQFWGQGTLVTVSS VL: EIVLTQSPATLSLSPGERATLSCRASQNVDHYLAWYQQKPGQAPRLLIYDASNRATGIPARFSGSGSGTDFTLTISSLEPEDFAVYYCQQRSNWPPWTFGQGTKVEIKR	0.232	0.024	0.391	0.069	1840
Fab VH1-46_IGHD6-6*01_IGHJ1*01 S102A/S103P/S104F/H111F I51V/N52L/S54T/G56H & L6_IGKJ1*01 S28N/S30D/S31H (Fab, V domains shown, Fab expressed in E. coli: VH joined to CH1 from Plasmid A (His6 and Flag tags), VL joined to kappa CL from Plasmid C; also called H:APFF VLTH & L:NDH) VH: QVQLVQSGAEVKKPGASVKVSCKASGYTFTSYYMHWVRQAPGQGLEWMGIVLPTGHSTSYAQKFQGRVTMTRDTSTSTVYMELSSLRSEDTAVYYCAREEYAPFSAEYFQFWGQGTLVTVSS VL: EIVLTQSPATLSLSPGERATLSCRASQNVDHYLAWYQQKPGQAPRLLIYDASNRATGIPARFSGSGSGTDFTLTISSLEPEDFAVYYCQQRSNWPPWTFGQGTKVEIKR	0.776	0.288	0.979	0.608	9790
